B1: TRAF3IP2 (parent)
chain: KEHVPTWLQNTHVYSWPKNKKNIL

Variants of: B1
Experiment: protein stability index of a GFP-peptide fusion (GPS, HEK-293T) (PSI 1-6); higher = more stable
Settings: c terminus: a fixed tail appended
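Also: lentivirally expressed fusions sorted by FACS into six bins by GFP to DsRed ratio, PSI derived from sequencing read proportions per bin multiplied by bin number.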

Row | Variant | protein stability index
1 | T6F | 1.93
2 | W7L | 3.2
3 | W7D | 3.07
4 | W7P | 3.21
5 | W7K | 3.34
6 | W7A | 3.39
7 | W7G | 3.99
8 | W7T | 3.84
9 | W7R | 2.85
10 | W7I | 2.61
11 | W7N | 3.63
12 | W7F | 2.82
13 | W7E | 3.97
14 | W7V | 3.82
15 | W7M | 3.61
16 | W7Q | 3.74
17 | W7H | 3.21
18 | W7C | 3.75
19 | W7Y | 2.88
20 | W7S | 3.31
21 | K1M | 2.33
22 | K1C | 2.26
23 | K1H | 2.58
24 | K1Y | 1.93

Row | Variant | protein stability index
25 | K1P | 1.97
26 | K1D | 2.93
27 | K1W | 1.98
28 | K1N | 3.12
29 | K1S | 2.76
30 | K1V | 2.78
31 | K1Q | 2.67
32 | K1T | 2.71
33 | K1A | 3.11
34 | K1E | 3.06
35 | K1G | 3.22
36 | K1L | 2.56
37 | K1F | 1.69
38 | K1R | 2.42
39 | K1I | 1.94
40 | L8Y | 2.73
41 | L8M | 3.34
42 | L8W | 2.63
43 | L8R | 2.98
44 | L8V | 2.04
45 | L8F | 2.2
46 | L8C | 3.02
47 | L8A | 3.33
48 | L8E | 3.88

Row | Variant | protein stability index
49 | L8I | 2.54
50 | L8T | 3.45
51 | L8K | 2.98
52 | L8P | 3.18
53 | L8G | 3.21
54 | L8H | 2.76
55 | L8Q | 3.08
56 | L8N | 3.2
57 | L8D | 3.17
58 | L8S | 3.01
59 | P5H | 2.06
60 | P5R | 1.95
61 | P5N | 2.26
62 | P5A | 2.66
63 | P5Q | 1.45
64 | P5L | 1.73
65 | P5V | 2.24
66 | P5Y | 1.94
67 | P5G | 2.38
68 | P5D | 3.08
69 | P5S | 2.47
70 | P5M | 2.27
71 | P5E | 2.58
72 | P5C | 1.96

Row | Variant | protein stability index
73 | P5K | 1.9
74 | P5W | 2.76
75 | P5T | 2.14
76 | P5I | 1
77 | H3A | 2.54
78 | H3D | 2.85
79 | H3K | 2.83
80 | H3Y | 2.03
81 | H3S | 2.58
82 | H3W | 2.02
83 | H3R | 2.21
84 | H3T | 2.72
85 | H3C | 2.42
86 | H3I | 2.53
87 | H3L | 2.6
88 | H3F | 2.16
89 | H3V | 2.69
90 | H3N | 3.17
91 | H3Q | 2.62
92 | H3P | 3.67
93 | H3E | 2.51
94 | H3G | 3.19
95 | H3M | 2.46
96 | Q9Y | 2.39

Row | Variant | protein stability index
97 | Q9V | 2.65
98 | Q9I | 2.55
99 | Q9R | 1.97
100 | Q9M | 2.53
101 | Q9G | 2.66
102 | Q9S | 2.62
103 | Q9K | 1.87
104 | Q9L | 2.29
105 | Q9D | 2.53
106 | Q9H | 2.54
107 | Q9N | 3.18
108 | Q9E | 2.68
109 | Q9C | 2.25
110 | Q9A | 2.18
111 | Q9P | 2.81
112 | Q9F | 2.38
113 | Q9T | 2.8
114 | N10K | 2.04
115 | N10M | 2.25
116 | N10F | 2.09
117 | N10S | 2.66
118 | N10P | 2.64
119 | N10H | 2.48
120 | N10G | 2.07

Row | Variant | protein stability index
121 | N10L | 2.03
122 | N10C | 2.07
123 | N10T | 2.85
124 | N10I | 1.79
125 | N10A | 2.34
126 | N10D | 3.02
127 | N10E | 2.66
128 | N10Q | 2.32
129 | N10R | 2.09
130 | E2K | 2.13
131 | E2L | 1.67
132 | E2H | 2.08
133 | E2W | 1.57
134 | E2S | 2.53
135 | E2C | 1.54
136 | E2F | 1.7
137 | E2Q | 2.15
138 | E2D | 2.47
139 | E2G | 1.93
140 | E2I | 1.58
141 | E2T | 2.33
142 | E2P | 2.25
143 | E2N | 2.14
144 | E2V | 2.15

Row | Variant | protein stability index
145 | E2A | 1.94
146 | E2Y | 2.07
147 | E2M | 2.5
148 | E2R | 3.4
149 | V4E | 3.23
150 | V4R | 2.69
151 | V4F | 2.07
152 | V4S | 2.77
153 | V4M | 2.35
154 | V4G | 2.81
155 | V4P | 2.85
156 | V4T | 3.87
157 | V4W | 1.93
158 | V4D | 3.29
159 | V4Q | 3.54
160 | V4Y | 2.27
161 | V4K | 2.43
162 | V4I | 1.74
163 | V4N | 3.44
164 | V4H | 2.25
165 | V4C | 1.87
166 | V4A | 2.39
167 | V4L | 3.21
